In the nanobody polyreactivity screen of Harvey et al. (2022):

Test: yeast display, Sf9 membrane polyspecificity reagent, FACS + sequencing; frameworks hold sequencing errors
How it was run: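 A nanobody's polyreactivity label depends on the gate it was sorted from. Yeast display cells were stained with 10% biotinylated, detergent-solubilized Sf9 membrane reagent for 1 hour at 4 °C, enriched on streptavidin microbeads and sorted by FACS. The low and high (top ~1%) gates were set on anti-HA fluorescence for expression and streptavidin fluorescence for reagent binding.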

Row | Sequence | polyreactivity (PSR sort gate)
1 | QVQLVESGGGLVQAGGSLRLSCAASGSTFLNNAMGWYRQAPGKERELVASIRYSSARTYYADTVKGRFTISRDNAKNTVYLQMNSLKPEDTAVYYCAADRWVGYRVYKYDYWGQGTQVTVSS | high polyreactivity
2 | QVQLVESGGGLVQAGGSLRLSCAASGSTFLPNAMGWYRQAPGKERELVATITFDGGSTYYADSVKGRFTISRDNAKNTVYLQMNSLKPEDTAVYYCNTVELYWRGYDYWGQGTQVTVSS | high polyreactivity
3 | QVQLVESGGGLVQAGGSLRLSCAASGSTFLRYAMGWARQAPGKERELVARISGGGTTYYADSVKGRFTISRDNAKNTVYLQMNSLKPEDTAVYYCAARAIYWSRYDYWGQGTQVTVSS | high polyreactivity
4 | QVQLVESGGGLVQAGGSLRLSCAASGSTFLSYAMGWYRQAPGHERELVAAISIAGSTYYADSVKGRFTISRANAKNTVYLQMHSLKPEDTAVDYCRRYYRIYDYWGQGTQVTVSS | low polyreactivity
5 | QVQLVESGGGLVQAGGSLRLSCAASGSTFLSYAMGWYRQAPGKERELVAAISWSGGRTYYADSVKGRFTISRDNAKNTVYLQMNSLKPEDTAVYYCAARHVPFTKHEYEYWGQGTQVTVSS | low polyreactivity
6 | QVQLVESGGGLVQAGGSLRLSCAASGSTFLTNAMGWYRQAPGKERELVAAIRTSGGSTYYADSVKGRFTISRDNAKNTVYLQMNSLKPEDTAVYYCAASYRRRRFSEYYYWGQGTQVTVSS | high polyreactivity
7 | QVQLVESGGGLVQAGGSLRLSCAASGSTFLTYAMGWYRQAPGKERELVAAISIAGSTYYADSVKGRFTISRDNAKNTVYLQMNSLKPEDTAVYYCAADIFERGPVPDRHNGYDYWRQGTQVTVSS | low polyreactivity
8 | QVQLVESGGGLVQAGGSLRLSCAASGSTFLVYAMGWYRQAPGKERELVARINWRGSSTYADSVKGRFTISRDNAKNTVYLQMNSLKPEDTAVYYCNADSYRYYHPTYIYDYWGQGTQVTVSS | low polyreactivity
9 | QVQLVESGGGLVQAGGSLRLSCAASGSTFLWYAMGWYRQAPGKERELVATISGSGGSTYYADSVKGRFTISRDNAKNTVYLQMNSLKPEDTAVYYCARDTLGGTSLGDYWGQGTQVTVSS | high polyreactivity
10 | QVQLVESGGGLVQAGGSLRLSCAASGSTFLWYTIGWYRQAPGKERELVADISSGGTTYYADSVKGRFTISPDNAKNTVYFQMNSLKPEDTAVYFCAKTRWPYDRWKYAFGYWGQGTQVTVSS | high polyreactivity
11 | QVQLVESGGGLVQAGGSLRLSCAASGSTFLYYAMGWSRQAPGKEMELVAAISGSGGSTYYADSVKGRFTISRDNAKNTVYLQMNSLKPEDTAVYYCNAVARRHGLGPYDYWGQGTQVTVSS | high polyreactivity
12 | QVQLVESGGGLVQAGGSLRLSCAASGSTFLYYAMGWYRQAPGKERELVAAITWSGGRTYYADSVKGRFTISRDNAKNTVYLQMNSLKPEVTAVYYCNKAYPWLRSTALNPGLYDYWGQGTQVTVSS | high polyreactivity
13 | QVQLVESGGGLVQAGGSLRLSCAASGSTFLYYAMGWYRQAPGKERELVARITTRVGRTYYADSVKGRFTISRDNAKNTVYLQMNSLKPEDTAVYYCAAYPDYSYYYWGQGTQVTVSS | high polyreactivity
14 | QVQLVESGGGLVQAGGSLRLSCAASGSTFLYYAMGWYRQAPGKERELVARITTRVGRTYYADSVKGRFTISRDNAKNTVYLQMNSLNPEDTAVYYCAAYPDYSYYYWGQGTQVTVSS | high polyreactivity
15 | QVQLVESGGGLVQAGGSLRLSCAASGSTFLYYAMGWYRQAPRKESELVATITDGGSTNYSDSVKGRFTISRDNAKNTVDLQMNSLKPEDTAVYYCAKRQWRPTYRYGYWGQGTQVTVSS | low polyreactivity
16 | QVQLVESGGGLVQAGGSLRLSCAASGSTFLYYAMGWYRQEPGKEREFVASISGSGGSTNYADSVKGRFTISRDNAKNTVYLQMNSLKPEDTAVYYCAKEYVTEFQGYYYWGQGTQVTVSS | low polyreactivity

Row | Sequence | polyreactivity (PSR sort gate)
17 | QVQLVESGGGLVQAGGSLRLSCAASGSTFNANAMGWYRQAPGKERELVAGISSGGSTYADSVKGRFTISRDNAKNTVYLKMNSLKPEDTAVYYCNADFYSWYPTFYWYDYWGQGTQVTVSS | high polyreactivity
18 | QVQLVESGGGLVQAGGSLRLSCAASGSTFNAYAMGWYRQAPGKERELVADISFSGGTYYADSVKGRFTISRDNAKNTVYLQMNSLKPEDTAVYYCSAESRWRSSAGGYYYWGQGTQVTVSS | low polyreactivity
19 | QVQLVESGGGLVQAGGSLRLSCAASGSTFNDYVMGWYRQAPGKERELVAAISRSGGSTYYADSVKGRFTISRDNAKNTVYLQMNSLNPEDTAVYYCAAASPGPWRYDYWGQGTQVTVSS | high polyreactivity
20 | QVQLVESGGGLVQAGGSLRLSCAASGSTFNGYAMGWSRQAPGKERELVAAISWSSGSTYYADSVKGRFTISRDNAKNTVYLQMNSLKPEDTAVYYCNKYYGYHKIKEYDYWGQGTQVTVSS | high polyreactivity
21 | QVQLVESGGGLVQAGGSLRLSCAASGSTFNGYAMGWYRQAPGKERELVAAISKRGGSTYYADSVKGRFTISRDNEKNTVYLQMNSLKPEDTAVYYCAARNPTQYLMDYWGQGTQVTVSS | high polyreactivity
22 | QVQLVESGGGLVQAGGSLRLSCAASGSTFNGYAMGWYRQAPGKERELVAAISSDGGSTYYADSVKGRFTISRDNAKNTVYLQMNSLKPEYTAVYYCAALVYVSGYGYYYWGQGTQVTVSS | high polyreactivity
23 | QVQLVESGGGLVQAGGSLRLSCAASGSTFNGYAMGWYRQAPGKERELVAAISWRGGSTYYADSVKGRFTISRDNAKNTVYLQMNSLKPEDTAVYYCNTLLYYGHRYYYWGQGTQVTVSS | high polyreactivity
24 | QVQLVESGGGLVQAGGSLRLSCAASGSTFNKYTMGWYRQAPGKEREFVAAISRIGGSTYYADSVKGRFTISRDNAKNTVYLQMNSLKPEDTAVYYCATGVRPLRKKPVEFYHWGQGTQVTVSS | low polyreactivity
25 | QVQLVESGGGLVQAGGSLRLSCAASGSTFNRNAMGWYRQAPGKERELVASISSGDNTKYADSVKGRFTISRDNAKNTVYLKMNSLKPEDTAVYYCNTVNKSLYAGLRKRWGGYYYWGQGTQVTVSS | high polyreactivity
26 | QVQLVESGGGLVQAGGSLRLSCAASGSTFNRYAMGWYRQAPGKERELVAAISGSGSSTYYADSVKGRFTISRDNAKNTVYLQMNSLKPEDTAVYYCAAVRYEYDYWGQGTQVTVSS | high polyreactivity
27 | QVQLVESGGGLVQAGGSLRLSCAASGSTFNRYAMGWYRQAPGKERELVAAISSRGGRTYYADSVKGRFTISRDNAKNTVYLQMNSLKPEDTAVYYCAADSSIDYDWGQGTQVTVSS | high polyreactivity
28 | QVQLVESGGGLVQAGGSLRLSCAASGSTFNRYAMGWYRQAPGKERELVAGISYSGTRTYYADSVKGRVTISRDNAKNTVYLQMNSLKPEDTAVYYCAAVYPGPYYARRRLFYWGQGTQVTVSS | high polyreactivity
29 | QVQLVESGGGLVQAGGSLRLSCAASGSTFNSYAMGWYRQAPGKERELVAAISWSGGSTYYADSVKGRFTISRDNAKNTVYLQMNSLKPEDPAVYYCNADYWWEYAYGVDYWGQGTQVTVSS | low polyreactivity
30 | QVQLVESGGGLVQAGGSLRLSCAASGSTFNTYVMGWYRQAPGKERELVAAISSSGGTTYYADSVKGRFTISRDNAKNTVYLQMNSLKPEDTAVYYCNAVPKYGSRLYRYGYWGQGTQVTVSS | high polyreactivity
31 | QVQLVESGGGLVQAGGSLRLSCAASGSTFNWNAMGWYRQAPGKERELVAAISRSGGRTSYADSVKGRFTISRDNAKNTVYLQMNSLKPEDTAVYYCAAEKVGTRPSRDYDYWGQGTQVTVSS | high polyreactivity
32 | QVQLVESGGGLVQAGGSLRLSCAASGSTFNWNAMGWYRQAPGTERELVAAISKSGGTTYYADSVKGRFTISRDNAKNTVYFQMNSLKPEDTAVYYCAAVRRYHSYPDGGYWGQGTQVTVSS | high polyreactivity
